± gives the standard deviation.
Assay: protein stability index of a GFP-peptide fusion (GPS, HEK-293T) (PSI 1-6); higher = more stable
Details: c terminus: a fixed tail appended
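Further: 24-mer peptide tiles fused after GFP, lentivirally expressed, FACS-sorted into six equal bins by GFP/DsRed ratio, decoded by Illumina sequencing, PSI is the read-weighted mean bin number.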

Sequence TWLTTPKSTWPRYSKPGLSMRLLE [TCF25] has a protein stability index (treatment: DMSO) of 2.41 ± 0.61 and a protein stability index (treatment: MLN4924 1 uM, 8 h) of 2.29 ± 0.31.
TYRIENYTPDLPRADVDHAIEKAF [MMP1] gave a protein stability index (treatment: DMSO) of 3.4 ± 0.18 and a protein stability index (treatment: MLN4924 1 uM, 8 h) of 3.39 ± 0.31.
For TYVAKMSEPHYGHAGTVYGGVMYI [KLHL13], the protein stability index (treatment: DMSO) was 3.32 ± 0.82 and the protein stability index (treatment: MLN4924 1 uM, 8 h) was 2.52 ± 0.45.
For VAITVEVKQEEDIKPPPPLVLNSQ [RAD54B], the protein stability index (treatment: DMSO) was 3 ± 0.26 and the protein stability index (treatment: MLN4924 1 uM, 8 h) was 2.98 ± 0.24.
Sequence VAMDTEFPGVVARPIGEFRSNADY [CNOT7] has a protein stability index (treatment: DMSO) of 3.73 ± 0.38 and a protein stability index (treatment: MLN4924 1 uM, 8 h) of 3.78 ± 0.37.
VAVNNIGRGPPSEPVLTQTSEQAP [PTPRD] showed a protein stability index (treatment: DMSO) of 4.78 ± 0.2 and a protein stability index (treatment: MLN4924 1 uM, 8 h) of 5.02 ± 0.49.
Work on VCTKYNLRITSGVVVCQCGLSIPS [RPAIN] yielded a protein stability index (treatment: DMSO) of 2.56 ± 0.5 and a protein stability index (treatment: MLN4924 1 uM, 8 h) of 2.45 ± 0.55.
In the case of VDDLKGSLKEDLTQHKFICEQCGK [SPRY1], the protein stability index (treatment: DMSO) is reported as 5.03 ± 0.3 and the protein stability index (treatment: MLN4924 1 uM, 8 h) is reported as 4.88 ± 0.26.
Work on VEAVAYAPKKELINIKGISEAKAD [RAD51] yielded a protein stability index (treatment: DMSO) of 4.49 ± 0.22 and a protein stability index (treatment: MLN4924 1 uM, 8 h) of 4.52 ± 0.41.
Work on VELHYEEGSPRNLGTPTSSTPRPS [C2CD2L] yielded a protein stability index (treatment: DMSO) of 4.63 ± 0.48 and a protein stability index (treatment: MLN4924 1 uM, 8 h) of 4.48 ± 0.32.
VENPSTASHSLSPSEHVQGKSPVN [ZNF649] showed a protein stability index (treatment: DMSO) of 5.26 ± 0.17 and a protein stability index (treatment: MLN4924 1 uM, 8 h) of 5.21 ± 0.29.
VERSKMIDRNLREDGEKAAREVKL [GNAI1] showed a protein stability index (treatment: DMSO) of 4.93 ± 0.38 and a protein stability index (treatment: MLN4924 1 uM, 8 h) of 5.09 ± 0.062.
Sequence VEVDAPKSQDLAKIMADIRAQYDE [KRT18] has a protein stability index (treatment: DMSO) of 4.76 ± 0.12 and a protein stability index (treatment: MLN4924 1 uM, 8 h) of 4.71 ± 0.17.
Work on VGDILWEHLEILQKEDVKPYQVNG [ETS1] yielded a protein stability index (treatment: DMSO) of 3.1 ± 0.27 and a protein stability index (treatment: MLN4924 1 uM, 8 h) of 3.05 ± 0.33.
For VGEPEFHYIAGAHGNEVLGRELLL [CPXM2], the protein stability index (treatment: DMSO) was 2.88 ± 0.62 and the protein stability index (treatment: MLN4924 1 uM, 8 h) was 3.25 ± 0.2.
Work on VGERLQDTHSWKSELQREMEALAA [TEKT4] yielded a protein stability index (treatment: DMSO) of 3.9 ± 0.62 and a protein stability index (treatment: MLN4924 1 uM, 8 h) of 3.92 ± 0.56.
For VGHARGLHAWQINWPARQRGTHAV [SPSB4], the protein stability index (treatment: DMSO) was 2.96 ± 0.43 and the protein stability index (treatment: MLN4924 1 uM, 8 h) was 2.87 ± 0.24.
In the case of VHQLSKKEASRHAIMRSPQMVSAI [CTNNB1], the protein stability index (treatment: DMSO) is reported as 3.06 ± 0.26 and the protein stability index (treatment: MLN4924 1 uM, 8 h) is reported as 3.06 ± 0.22.
For VIDKETIDLLAFTSVAELELLGLE [SDE2], the protein stability index (treatment: DMSO) was 2.27 ± 0.52 and the protein stability index (treatment: MLN4924 1 uM, 8 h) was 2.73 ± 0.48.
For VIDLFDEQGLSALHLAAQGRHAQT [RIPK4], the protein stability index (treatment: DMSO) was 3.05 ± 0.35 and the protein stability index (treatment: MLN4924 1 uM, 8 h) was 2.87 ± 0.14.
Work on VLAARSPVFNAMFEHEMEESKKNR [SPOPL] yielded a protein stability index (treatment: DMSO) of 3.73 ± 0.2 and a protein stability index (treatment: MLN4924 1 uM, 8 h) of 4.27 ± 0.29.
VLASFILDDGEIDEIRWKYHSDTT [IQUB] showed a protein stability index (treatment: DMSO) of 2.5 ± 0.23 and a protein stability index (treatment: MLN4924 1 uM, 8 h) of 2.18 ± 0.3.
Sequence VLEDNIIVSEVQFVESSGGGSSAV [BRF1] has a protein stability index (treatment: DMSO) of 3.75 ± 0.21 and a protein stability index (treatment: MLN4924 1 uM, 8 h) of 3.89 ± 0.27.
With VLFTSDACGLSDVAHVESLQEKSQ [NR2F2] the protein stability index (treatment: DMSO) was 3.93 ± 0.26 and the protein stability index (treatment: MLN4924 1 uM, 8 h) was 4.04 ± 0.28.
In the case of VLIFKSILFLPCLRKKILKIRHGW [STEAP1], the protein stability index (treatment: DMSO) is reported as 2.16 ± 0.51 and the protein stability index (treatment: MLN4924 1 uM, 8 h) is reported as 2.38 ± 0.25.
With VLLKKDVDAAYANKVELQAKVESM [KRT71] the protein stability index (treatment: DMSO) was 3.63 ± 0.36 and the protein stability index (treatment: MLN4924 1 uM, 8 h) was 3.65 ± 0.36.
Work on VLSLLSLEPAQRPPLSHIMAQPLC [NEK8] yielded a protein stability index (treatment: DMSO) of 2.17 ± 0.15 and a protein stability index (treatment: MLN4924 1 uM, 8 h) of 2.3 ± 0.099.
In the case of VNAVLTQIDQIKRHSNVVILTTSN [TRIP13], the protein stability index (treatment: DMSO) is reported as 1.92 ± 0.46 and the protein stability index (treatment: MLN4924 1 uM, 8 h) is reported as 1.95 ± 0.24.
Sequence VPQPARMPYISDKHPRQTLEVINL [KLHL20] has a protein stability index (treatment: DMSO) of 2.88 ± 0.2 and a protein stability index (treatment: MLN4924 1 uM, 8 h) of 3.2 ± 0.31.
In the case of VQYLQHLGTENLHLIFSYSVWVLR [VPS39], the protein stability index (treatment: DMSO) is reported as 3.23 ± 0.39 and the protein stability index (treatment: MLN4924 1 uM, 8 h) is reported as 2.96 ± 0.41.
VRGLYDFYLPREELWIYNMETGRW [KLHDC2] gave a protein stability index (treatment: DMSO) of 2.57 ± 0.39 and a protein stability index (treatment: MLN4924 1 uM, 8 h) of 2.24 ± 0.48.
Sequence VRLQSIHTMRKISNNITLREDQLD [INTS4] has a protein stability index (treatment: DMSO) of 3.2 ± 0.055 and a protein stability index (treatment: MLN4924 1 uM, 8 h) of 3.3 ± 0.36.
VRSGAWHFSFNVKFYPPDPAQLSE [EPB41L3] gave a protein stability index (treatment: DMSO) of 1.98 ± 0.61 and a protein stability index (treatment: MLN4924 1 uM, 8 h) of 2.53 ± 0.18.
Work on VRSIQPEEKERIGQFVFARDAKAA [AASDHPPT] yielded a protein stability index (treatment: DMSO) of 4.13 ± 0.31 and a protein stability index (treatment: MLN4924 1 uM, 8 h) of 4.39 ± 0.27.
Work on VRTTRGKRKRVDVEESEASSSVSI [LMNB1] yielded a protein stability index (treatment: DMSO) of 5.13 ± 0.17 and a protein stability index (treatment: MLN4924 1 uM, 8 h) of 5.09 ± 0.44.
With VSRGGHGQQDLFRVLKAYTLYRPE [TBC1D10A] the protein stability index (treatment: DMSO) was 2.06 ± 0.17 and the protein stability index (treatment: MLN4924 1 uM, 8 h) was 2.12 ± 0.36.
VSSLISEKTNGATPLLMAARYGHL [FEM1C] gave a protein stability index (treatment: DMSO) of 2.28 ± 0.17 and a protein stability index (treatment: MLN4924 1 uM, 8 h) of 2.52 ± 0.28.
With VSSVTQVEVDENAYRCGSGMQMAE [NET1] the protein stability index (treatment: DMSO) was 4.2 ± 0.3 and the protein stability index (treatment: MLN4924 1 uM, 8 h) was 4.42 ± 0.11.
Sequence VTASPPTDLIWKNQNSWGTGEDVK [LMNB1] has a protein stability index (treatment: DMSO) of 4.36 ± 0.26 and a protein stability index (treatment: MLN4924 1 uM, 8 h) of 4.37 ± 0.24.
In the case of VVCQPNEFIMPDSAVVGDVLVLTK [SEPHS2], the protein stability index (treatment: DMSO) is reported as 2.35 ± 0.19 and the protein stability index (treatment: MLN4924 1 uM, 8 h) is reported as 2.56 ± 0.36.
For VVCVLLNLAGFILGCQGAQFVSSV [FAM189A2], the protein stability index (treatment: DMSO) was 3.35 ± 0.99 and the protein stability index (treatment: MLN4924 1 uM, 8 h) was 2.21 ± 0.42.
VVEATHMCMVMRGVQKMNSKTVTS [GCH1] gave a protein stability index (treatment: DMSO) of 2.82 ± 0.31 and a protein stability index (treatment: MLN4924 1 uM, 8 h) of 3 ± 0.45.
Sequence VVPARLKRASAPTFDNDYSLSELL [RIPK4] has a protein stability index (treatment: DMSO) of 2.69 ± 0.17 and a protein stability index (treatment: MLN4924 1 uM, 8 h) of 2.8 ± 0.42.
VVRICCIRSFGHFIARLQGSILQF [SMG5] gave a protein stability index (treatment: DMSO) of 2.57 ± 0.37 and a protein stability index (treatment: MLN4924 1 uM, 8 h) of 2.66 ± 0.57.
WCDGCKNHIGMGVRYNAEKKKVGN [YJU2B] gave a protein stability index (treatment: DMSO) of 3.67 ± 0.34 and a protein stability index (treatment: MLN4924 1 uM, 8 h) of 3.65 ± 0.32.

Source: the supplement of paper PMC10567573
